B1: MBP-GGDEF_(SoPdeB), GGDEF domain of S. oneidensis PdeB, wild type (domain or fragment, UniProt Q8EJM6 454-587, looked up)
chain: RSLAVCYLDLEQFKLINDSCGHTAGDRMLAMVARAIQSCLGPQELLARIGGDEFGLVICDRTALAVAQLLKQIIAQVSLQVLHDKNCNYKVGLSIGVAFGRAPYINAQELLKDADIACIAAKAKGTNQIHIYDD
notes: GGDEF (diguanylate cyclase) domain of the phosphodiesterase PdeB of Shewanella oneidensis; construct limits may stand there; The MBP tag is named for SEC, iSCAMS and pull-down; also called SoGGDEF; SoGGDEF_(PdeB); source: E. coli BL21(DE3), pET24c, purified (His Trap, SEC)

Tests used:
[1] = biological target: FimV domain of S. putrefaciens HubP (S. putrefaciens)
[2] = biological target: T1, MshE-N (Shewanella putrefaciens, UniProt A0ABX8XDM4); assay: isothermal titration calorimetry; settings: 25 °C; one set of binding sites; value only in figure; read-out: dissociation constant
T1 construct: gene tadA; N-terminal domain aa 2-145, His-tag purified from E. coli BL21(DE3); strain inferred from locus prefix Sputcn32
Source text: isothermal titration calorimetry on MshE-N | both MshE and MshE-N bind c-di-GMP with high affinity

[3] = biological target: T2, MshE (Shewanella putrefaciens, UniProt A0ABX8XDM4); assay: isothermal titration calorimetry; settings: 25 °C; one set of binding sites; value only in figure; read-out: dissociation constant
T2 construct: gene tadA; full-length, His-tag purified from E. coli BL21(DE3); strain inferred from locus prefix Sputcn32
T2 sequence (A0ABX8XDM4 1-586): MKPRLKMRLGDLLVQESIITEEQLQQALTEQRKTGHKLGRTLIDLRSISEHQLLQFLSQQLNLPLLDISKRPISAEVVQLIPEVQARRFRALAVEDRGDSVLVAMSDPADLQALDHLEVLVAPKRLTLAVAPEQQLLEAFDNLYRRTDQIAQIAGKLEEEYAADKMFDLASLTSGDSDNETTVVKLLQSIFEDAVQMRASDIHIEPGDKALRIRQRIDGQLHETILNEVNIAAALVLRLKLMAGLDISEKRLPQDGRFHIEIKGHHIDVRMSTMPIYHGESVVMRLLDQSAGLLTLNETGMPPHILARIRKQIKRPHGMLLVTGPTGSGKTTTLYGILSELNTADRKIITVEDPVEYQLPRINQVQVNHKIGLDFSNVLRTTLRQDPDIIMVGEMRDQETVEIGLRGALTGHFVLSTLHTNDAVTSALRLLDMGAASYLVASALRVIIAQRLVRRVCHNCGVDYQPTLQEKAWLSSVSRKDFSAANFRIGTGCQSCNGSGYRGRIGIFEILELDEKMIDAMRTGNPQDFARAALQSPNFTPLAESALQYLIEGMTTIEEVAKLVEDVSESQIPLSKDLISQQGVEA
Source text: isothermal titration calorimetry on MshE | both MshE and MshE-N bind c-di-GMP with high affinity

[4] = biological target: T3, FimV domain of S. oneidensis HubP (S. oneidensis, biotinylated with EZ-Link NHS-PEG4-biotin (for the BLI assay only)); assay: interferometric scattering mass spectrometry (iSCAMS, mass photometry); MBP-GGDEF_(SoPdeB)/FimV_(HubP) complex, samples prepared at 1 µM, low-salt HEPES buffer (20 mM HEPES, 50 mM NaCl, 50 mM KCl, 5 mM MgCl2, pH 7.5), room temperature; settings: both partners purified
T3 chain: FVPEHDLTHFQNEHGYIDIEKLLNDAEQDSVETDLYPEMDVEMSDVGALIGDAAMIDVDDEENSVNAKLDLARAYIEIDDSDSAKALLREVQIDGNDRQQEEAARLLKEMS

[5] = biological target: T3, FimV domain of S. oneidensis HubP; assay: BLI; biotinylated SoFimV held on streptavidin biosensors (BLITZ), SoGGDEF variants as analyte; medium salt HEPES buffer pH 7.5 for association only, high-salt Tris buffer pH 8 for association-dissociation; settings: both partners purified
[6] = biological target: B1; assay: as above; settings: both partners purified
[7] = biological target: T4, SoGGDEF_(PdeB) K575S (S. oneidensis, UniProt Q8EJM6 454-587, K575S); assay: BLI
T4 sequence: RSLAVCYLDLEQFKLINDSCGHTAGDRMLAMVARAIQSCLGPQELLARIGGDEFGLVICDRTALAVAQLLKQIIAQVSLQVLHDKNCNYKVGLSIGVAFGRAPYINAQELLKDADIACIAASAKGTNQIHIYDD

[8] = biological target: T5, SoGGDEF_(PdeB) G494A (S. oneidensis, UniProt Q8EJM6 454-587, G494A); assay: BLI
T5 sequence: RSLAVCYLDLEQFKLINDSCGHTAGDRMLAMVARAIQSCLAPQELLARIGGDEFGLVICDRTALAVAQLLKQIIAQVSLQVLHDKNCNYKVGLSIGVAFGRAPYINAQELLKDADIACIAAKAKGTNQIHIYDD

[9] = biological target: T6, SoGGDEF_(PdeB) E497S (S. oneidensis, UniProt Q8EJM6 454-587, E497S); assay: BLI
T6 sequence: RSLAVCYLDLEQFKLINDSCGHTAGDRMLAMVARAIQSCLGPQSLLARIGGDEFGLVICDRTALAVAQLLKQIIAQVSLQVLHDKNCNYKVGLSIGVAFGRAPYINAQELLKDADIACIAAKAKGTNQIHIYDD

[10] = biological target: T7, SoGGDEF_(PdeB) Q525S (S. oneidensis, UniProt Q8EJM6 454-587, Q525S); assay: BLI
T7 sequence: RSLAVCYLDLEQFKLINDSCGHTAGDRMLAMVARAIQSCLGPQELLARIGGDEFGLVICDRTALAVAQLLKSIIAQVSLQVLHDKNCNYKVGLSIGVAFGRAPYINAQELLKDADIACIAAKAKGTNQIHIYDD

[11] = biological target: T8, SoGGDEF_(PdeB) K577S (S. oneidensis, UniProt Q8EJM6 454-587, K577S); assay: BLI
T8 sequence: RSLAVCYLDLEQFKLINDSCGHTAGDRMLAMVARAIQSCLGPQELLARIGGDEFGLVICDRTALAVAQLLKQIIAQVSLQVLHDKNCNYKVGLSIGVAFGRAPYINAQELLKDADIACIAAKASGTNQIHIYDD

With “S. putrefaciens PdeB-mVenus K527E/Q528S (natural protein)” the single-molecule tracking of PdeB-mVenus K527E/Q528S in S. putrefaciens cells: share of static molecules [1] was 61%.

In the case of Nc1nc2c(ncn2[C@@H]2O[C@@H]3CO[P@](=O)(O)O[C@H]4[C@@H](O)[C@H](n5cnc6c(=O)[nH]c(N)nc65)O[C@@H]4CO[P@](=O)(O)O[C@H]3[C@H]2O)c(=O)[nH]1 [c-di-GMP], the Kd [2] is reported as 4000 nM and the Kd [3] is reported as 9000 nM.

In the case of “MBP-GGDEF_(PdeB), GGDEF domain of S. putrefaciens PdeB (domain or fragment)”, the single-molecule tracking of PdeB-mVenus in S. putrefaciens cells: share of molecules statically confined to the cell pole [1] is reported as 84%.

In the case of B1, the “stoichiometry N” value [4] is reported as ~1 GGDEF per FimV (2:2).

B2: SoGGDEF_(PdeB) K577S (domain or fragment, S. oneidensis, UniProt Q8EJM6 454-587, looked up)
chain: RSLAVCYLDLEQFKLINDSCGHTAGDRMLAMVARAIQSCLGPQELLARIGGDEFGLVICDRTALAVAQLLKQIIAQVSLQVLHDKNCNYKVGLSIGVAFGRAPYINAQELLKDADIACIAAKASGTNQIHIYDD
notes: GGDEF domain of PdeB of Shewanella oneidensis with K577S; Variant of m1; the methods of the pull-down call the GGDEF variants MBP-tagged; source: E. coli BL21(DE3), pET24c, purified (His Trap, SEC)
B2 was tested, and the “fold increase of KD against the wild type” value [5] was 10 fold.

B3: SoGGDEF_(PdeB) K575S (domain or fragment, S. oneidensis, UniProt Q8EJM6 454-587, looked up)
chain: RSLAVCYLDLEQFKLINDSCGHTAGDRMLAMVARAIQSCLGPQELLARIGGDEFGLVICDRTALAVAQLLKQIIAQVSLQVLHDKNCNYKVGLSIGVAFGRAPYINAQELLKDADIACIAASAKGTNQIHIYDD
notes: GGDEF domain of PdeB of Shewanella oneidensis with K575S; Variant of m1; the methods of the pull-down call the GGDEF variants MBP-tagged; source: E. coli BL21(DE3), pET24c, purified (His Trap, SEC)
In the case of B3, the “fold increase of KD against the wild type” value [5] is reported as 100 fold.

B4: FimV domain of S. oneidensis HubP (domain or fragment)
chain: FVPEHDLTHFQNEHGYIDIEKLLNDAEQDSVETDLYPEMDVEMSDVGALIGDAAMIDVDDEENSVNAKLDLARAYIEIDDSDSAKALLREVQIDGNDRQQEEAARLLKEMS
modifications: biotinylated with EZ-Link NHS-PEG4-biotin (for the BLI assay only)
B4 showed a Kd [6] of roughly 200 nM, a Kd [7] of 22000 nM and a Kd [8] of 835 nM. The Kd [9] was 299 nM, the Kd [10] was 592 nM and the Kd [11] was 2720 nM.

Source: PMC9061725, “GGDEF domain as spatial on-switch for a phosphodiesterase by interaction with landmark protein HubP” (NPJ Biofilms and Microbiomes, 2022)
